Consider 112 substances from US20240207421A1, “NERVE TARGETING PEPTIDES AND METHODS OF USE” (ALUME BIOSCIENCES, INC., priority 2020, published 2024).

One assay concerns Human Myelin PLP. Briefly: Phage display library screening (Example 2, Python script analysis), binding to Human Myelin PLP. Conditions: combined unique sequence count, Python/R script analysis. Here is the method:
Phage display library screens were used to identify peptides that bind to target proteins (including specific laminin trimers) that are expressed in human nerves, as described in Table 3. These screens were also carried out to identify peptides that could bind selectively to nerves versus muscle. Such peptides could therefore be useful for systemic in-vivo labeling of nerves during fluorescence assisted surgery. Specifically, m 13 phage libraries expressing 7 or 12 random amino acid peptides, or a cyclic peptide CX7C, on the N-terminus of the minor coat protein pIII (New England Biolabs; NEB) were processed through multiple rounds of selection for binding to target proteins expressed in nerves, or to excised human nerves, nerve extracts, or muscle, as described further below.
For screening against the specified target proteins in Table 1, including LN211, LN411, LN421, and LN521, the phage library was processed by up to 4 binding and wash cycles. For selection, phage libraries were incubated for up to 24 hours at 4° C. in 96 well plates that had been coated with one of the target proteins. Plates were then washed with PBS and phage were eluted using 0.2M glycine pH 2.0. Phage supernatants where then neutralized with Tris pH 9.0 prior to plating on TGI bacteria and LB agar plates. Colonies were counted to determine titer followed by DNA preparation of pools of phage and NextGen sequencing. After rounds of selection, phage were pooled and amplified for iterative selection. Phage that were bound at each round were sequenced. NextGen sequencing of pools after 2, 3 and 4 rounds of selection was used to isolate candidate sequences that were analyzed further to identify those that specifically bound each unique target protein.
Python Script Analysis: For all NEB sequence datasets, a python script was used to translate, trim, and filter the peptide sequences. The script translated the nucleotide sequences, translating amber codons as glutamine in peptide sequences, and then trimmed the end sequences that come from the vector. Secondly, the script combined the unique counts of trimmed peptides with identical sequences. […] Another python script was used to group peptides from different assays according to protein target (Myelin Protein Zero, Myelin Proteolipid Protein, Myelin Basic Protein, and Nidogen-2) and also combine the unique sequence counts for each peptide. An R script was written to merge the peptide sequences from different data files and determine peptides specific for each protein target but absent from different protein binding datasets. Peptide sequences were ranked by unique sequence count.
QLPRNNL (Myelin PLP-binding peptide): the Count is given as 28.
For the substance YSSRLTA (Myelin PLP-binding peptide), the Count amounted to 29.
Still for that read-out and setting: the same measure for YTWTPSR (Myelin PLP-binding peptide): 28; for MKIMPMD (Myelin PLP-binding peptide): 26; for SVMWMTP (Myelin PLP-binding peptide): 29.
For EVLYPNN (Myelin PLP-binding peptide), the Count came out at 27.
As for GKSYSQI (Myelin PLP-binding peptide), the Count was determined as 31.
The same measure, in the same setting: the figure for GPAAVII (Myelin PLP-binding peptide) is 29.
As to FSLDRDG (Myelin PLP-binding peptide), the Count was found to be 29.
On the same count and under the same terms, the same measure for TGISSTP (Myelin PLP-binding peptide): 27; for SVLPDKL (Myelin PLP-binding peptide): 28; for EPSSFTF (Myelin PLP-binding peptide): 31.
With GWSTAIR (Myelin PLP-binding peptide), the Count is 29.
On the same count and under the same terms, the figure for WSRISVD (Myelin PLP-binding peptide) is 26; for WSPHGYK (Myelin PLP-binding peptide) it is 27.
The same measure, in the same setting: the figure for TLWAQKT (Myelin PLP-binding peptide) is 28; for SLPGYRH (Myelin PLP-binding peptide) it is 28.
Same read-out and setting: the same measure for KPSASIY (Myelin PLP-binding peptide): 26; for ALFQERK (Myelin PLP-binding peptide): 27; for GHLQSLF (Myelin PLP-binding peptide): 26.
In the case of SGLHYAL (Myelin PLP-binding peptide), the Count was 32.
Still for that read-out and setting: the same measure for FRIDKSM (Myelin PLP-binding peptide): 26; for NIPSSIL (Myelin PLP-binding peptide): 33.
For the substance AVVAMNK (Myelin PLP-binding peptide), the Count amounted to 28.
Turning to IRPTHNG (Myelin PLP-binding peptide), the Count worked out at 27.
Still for that read-out and setting: the figure for GSAWKKH (Myelin PLP-binding peptide) is 44; for ASLTLAL (Myelin PLP-binding peptide) it is 26.
On to HKAPLGT (Myelin PLP-binding peptide), for which the Count came out at 29.
Turning to LPSHASI (Myelin PLP-binding peptide), the Count stood at 26.
The same measure, in the same setting: the same measure for LPLRLHA (Myelin PLP-binding peptide): 31.
On the same count and under the same terms, the figure for HLHTRPT (Myelin PLP-binding peptide) is 27; for VRTSMNH (Myelin PLP-binding peptide) it is 28.
For the substance DGSRDLV (Myelin PLP-binding peptide), the Count is reported as 30.
On the same count and under the same terms, the same measure for SGVATYT (Myelin PLP-binding peptide): 31; for TDVEMVP (Myelin PLP-binding peptide): 40; for SLPSLLP (Myelin PLP-binding peptide): 26.
The same measure, in the same setting: the same measure for EKSTTVA (Myelin PLP-binding peptide): 30; for ARFVPLT (Myelin PLP-binding peptide): 30.
Same read-out and setting: the figure for GIPSSKN (Myelin PLP-binding peptide) is 28; for SALISTR (Myelin PLP-binding peptide) it is 32; for TRASYPQ (Myelin PLP-binding peptide) it is 32.
Turning to IIPPTSV (Myelin PLP-binding peptide), the Count was 31.
As for KGVIPAT (Myelin PLP-binding peptide), the Count is 27.
With LHQTYRP (Myelin PLP-binding peptide), the Count came out at 27.
On to TTTIADM (Myelin PLP-binding peptide), for which the Count was determined as 26.
Still for that read-out and setting: the same measure for TMPIKAM (Myelin PLP-binding peptide): 27.
As for NDASTVS (Myelin PLP-binding peptide), the Count worked out at 28.
As to YSQAISA (Myelin PLP-binding peptide), the Count stood at 27.
On to VTGPGTP (Myelin PLP-binding peptide), for which the Count turned out to be 26.
The same measure, in the same setting: the same measure for QPNMLKP (Myelin PLP-binding peptide): 33.
On the same count and under the same terms, the same measure for IHHLESS (Myelin PLP-binding peptide): 32; for WSPHRSF (Myelin PLP-binding peptide): 31.
As to TQPRYPS (Myelin PLP-binding peptide), the Count was found to be 28.

The target of another assay is Human MPZ (human) (UniProt P25189). Briefly: phage display, NGS count.
Chain of Human MPZ (human) (P25189 30-153 limits assumed): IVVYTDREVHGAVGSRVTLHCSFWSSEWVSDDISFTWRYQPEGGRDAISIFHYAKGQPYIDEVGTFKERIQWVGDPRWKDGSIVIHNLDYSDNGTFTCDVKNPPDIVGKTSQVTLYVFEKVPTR
Conditions: not given
In turn, ISSVTVV (peptide) returned a Count of 37.
The same measure, in the same setting: the same measure for YMKHSPG (peptide): 45; for SNALSYF (peptide): 41; for TTLVVTA (peptide): 42.
Same read-out and setting: the figure for KTPILAS (peptide) is 38; for FEHMAVT (peptide) it is 42; for GGSKVWG (peptide) it is 40.
Same read-out and setting: the figure for AWTMRAS (peptide) is 39; for IEQVGWR (peptide) it is 38.
The substance SAHSVVE (peptide) yielded a Count of 38.
In the case of FRVTQTA (peptide), the Count worked out at 41.
In turn, DRYLLNQ (peptide) came in with a Count of 40.
On to NMSHSNR (peptide), for which the Count came to 46.
In turn, NPTSEGA (peptide) returned a Count of 37.
The same measure, in the same setting: the figure for KLPTLSV (peptide) is 44; for AMSNLSY (peptide) it is 45.
For the substance MIHTRQT (peptide), the Count turned out to be 41.
Same read-out and setting: the same measure for WPRPIQI (peptide): 41; for HPLMVPS (peptide): 41; for LVLQTTP (peptide): 37.
Same read-out and setting: the figure for GPVVSGM (peptide) is 46; for ALPISYL (peptide) it is 42; for HPFPRFD (peptide) it is 45.
On the same count and under the same terms, the same measure for FMSDVDH (peptide): 37; for GLWRHTM (peptide): 40; for NASVPPK (peptide): 42.
In the case of YAPWRVF (peptide), the Count came out at 37.
Still for that read-out and setting: the figure for HHPLFID (peptide) is 39; for TTWPNTA (peptide) it is 45; for FPSYTIS (peptide) it is 40.
Same read-out and setting: the same measure for NTASMTT (peptide): 38; for FSPRDVS (peptide): 39.
Same read-out and setting: the same measure for SGHGAFR (peptide): 42.
LWAKRDA (peptide) yielded a Count of 38.
The same measure, in the same setting: the figure for YSSLTSN (peptide) is 38.
In turn, FSTTGRG (peptide) showed a Count of 39.
Same read-out and setting: the figure for KRNLWDI (peptide) is 40.
STHEWRT (peptide) returned a Count of 45.
Turning to VVPLKWI (peptide), the Count was 40.
Still for that read-out and setting: the figure for TLLHYSA (peptide) is 40; for WTSVATA (peptide) it is 41.
The same measure, in the same setting: the figure for LSPPRIM (peptide) is 43; for YPQARTS (peptide) it is 46; for QIAHLEY (peptide) it is 50.
Same read-out and setting: the figure for HNQLLYT (peptide) is 38.
In turn, FALPAGL (peptide) had a Count of 41.
On the same count and under the same terms, the same measure for SPNTNSH (peptide): 40; for YEGERGA (peptide): 39; for LPAESHW (peptide): 45.
On the same count and under the same terms, the figure for GSWSSGF (peptide) is 52.
For the substance LISPTAR (peptide), the Count stood at 37.
As to LPNANNL (peptide), the Count is 41.
On to THSTDLS (peptide), for which the Count came to 37.
On the same count and under the same terms, the same measure for LVNPFPE (peptide): 39.
Substance SYLPPFI (peptide) came in with a Count of 41.
SVAYVPV (peptide) returned a Count of 46.
Still for that read-out and setting: the figure for MYHDSVS (peptide) is 47.
Still for that read-out and setting: the figure for WMTNLDP (peptide) is 43.
Consider VHTPYRS (peptide), for which the Count stood at 41.
